Series [1] concerns Arabidopsis thaliana. Description: Herbicide resistance of transgenic Arabidopsis thaliana seedlings on plate medium (root growth). The note with it: plate medium with 2,4-D (0.3 μmol). The series is classed as in vivo.
The format of series [2] is cell-based, Escherichia coli.
The subject of series [3] is Arabidopsis thaliana. Description: Herbicide resistance of transgenic Arabidopsis thaliana seedlings on plate medium (root growth). The settings on record: Arabidopsis overexpressing the gene. The series is classed as in vivo. The method in brief:
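After 3 days of cold treatment at 4 °C, seeds were cultured at 22 °C under a 16 h/8 h light cycle on MS herbicide medium (0.3 μM 2,4-D in the screen). Root growth was scored against wild-type seedlings at one week. The material was T2 AAD-overexpressing lines (AtUbi10 promoter, MAS terminator, hygromycin marker), two events each, tested with 2,4-D, 2,4-DB sodium and MCPA.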

A short description of series [4]: Chromogenic reaction of degrading herbicides in bacteria: triclopyr. It counts as cell-based, Escherichia coli. The settings on record: recombinant E. coli expressing the gene.

B1: QYD42: AAD-like enzyme, SEQ ID NO. 83; expressed from vectors pQY2309 (Arabidopsis), pQY2329 (maize), pQY2330 (soybean) (protein)
chain: MQITPIADATFGATVTGLRLATLDDAGFARLHAAWLQHALLVFPGQFLTNAEQIGFAKRFGPIERIGGGDIVAISNVKADGTVRQHSPAEWDDMMKVIVGNMAWHADSTYMPVMAQGAVFSAEVVPPTGGRTCFADMRAAYDALDDATRALVHQRSARHSLVYSQSKLGHVQQAGSAYVGYGMDTTATPLRPLVKRHPETGRLSLLIGRHAHAIPGLEEAESERFLEDLVAWACQPPRVVAHHWTAGDVVLWDNRCLLHRAEPWDFTLPRVMWHSRLAGHPETEAAPLV
modifications: Synthetic polypeptide, QYD42, D42
For the molecule B1, in the series on Arabidopsis thaliana [1], the “2,4-D resistance of T1 generation transgenic seedlings (seminal root growth)” value is given as “showing tolerance to 2,4-D”. In addition, in series [2], the “Chromogenic reaction of degrading herbicides in bacteria: MCPA” value is recorded as “Yes”. Further, in the series with Arabidopsis thaliana [3], the “Resistance of transgenic Arabidopsis thaliana: 2,4-D” value was “Yes” and the “Resistance of transgenic Arabidopsis thaliana: MCPA” value is “Yes”. For the same molecule, the “Chromogenic reaction of degrading herbicides in bacteria: Triclopyr” value in series [4] is on record as “Yes”. The “Chromogenic reaction of degrading herbicides in bacteria: Triclopyr” value in series [4] (listed as D42) is “slight degradation”.

The values are drawn from patent US20240043859A1, “HERBICIDE-RESISTANT PROTEIN, AND GENE AND USE THEREOF” (QINGDAO KINGAGROOT CHEMICAL COMPOUND CO., LTD., priority 2020, published 2024).
